Reference: PMC3295773

Key:
[1] = molecular target: complexin 2 (pig (endogenous in boar sperm)); assay: SDS-resistant complexes on SDS-PAGE, Western blot (bands of the same size); whole sperm lysate, remaining head fraction and mixed vesicles of boar sperm treated with bicarbonate and 5 uM Ca2+ ionophore A23187; 35 ug crude protein a lane; non-reducing (RT, no reducing agent) or reducing (100 C, 10 min, 0.1 M DTT) conditions
[2] = molecular target: complexin 2 (pig (endogenous in boar sperm)); assay: SDS-resistant complexes on SDS-PAGE, Western blot (bands of the same size); boar sperm incubated with bicarbonate (with or without Ca2+ ionophore), lysed in 1% Triton X-100 on ice, sucrose gradient fractions 1-13; non-reducing SDS-PAGE; blots for complexin 1/2, syntaxin 3, SNAP 23, VAMP 2, syntaxin 1B, VAMP 3
[3] = molecular target: complexin 2 (pig (endogenous in boar sperm)); assay: SDS-resistant complexes on SDS-PAGE, Western blot (bands of the same size); membrane cavitates of bicarbonate-capacitated boar sperm pre-incubated with 0-4 mM CaCl2 and 5 uM Ca2+ ionophore at 37 C for 20 min; non-reducing conditions; blot for complexin 1/2; most complexin left the 95 kDa complex as Ca2+ rose

Measured: stoichiometry N

complexin 2 (natural protein)
2: all assays above
